The results in this text go back to US20210355235A1, “Compositions and Methods For Treating Cancer with Anti-Renalase antibodies and Anti-PD1 antibodies” (YALE UNIVERSITY, priority 2017, published 2021).

“Also recorded” adds a separate entry of the source.

This experiment concerns Panc1 cells. Kind of experiment: western blot of p38 and STAT3 phosphorylation. The experiment is classed as cell-based, human. The text has this:
FIG. 27, comprising FIGS. 27A through 27E, is a series of images and charts showing the interaction between RNLS and STAT3, and the mechanistic model of inhibition by m28-RNLS. FIG. 27A is an image showing activation of STAT3 by RNLS in Panc1 cells; Panc1 cells in culture treated with either BSA or RNLS, and STAT3 phosphorylation assessed by western blot; p-Ser^727-STAT3: phosphorylation at serine 727, p-Y^705-STAT3: phosphorylation at tyrosine 705; representative study. FIG. 27B is a chart depicting the quantification of STAT3 phosphorylation with RNLS; signals normalized to total STAT3; n=3, *=P<0.05. […] FIG. 27D is a chart showing the quantification of STAT3 phosphorylation with m28-RNLS; signals normalized to GAPDH loading control; n=3, *=P<0.05. FIG. 27E depicts the proposed mechanistic model for antitumor activity of m28-RNLS.
On the technique in general: A western blot detects proteins with antibodies after separation by electrophoresis.

B1: m28-RNLS: rabbit anti-renalase monoclonal raised against RNLS peptide RP-220; heavy chain SEQ ID NO:9, light chain SEQ ID NO:10 (antibody)
heavy: METGLRWLLLVAVLKGVQCQSVEESGGRLVTPGTPLTLTCTVSGFSLSSFAVGWVRQAPGKGLEYIGIISSVGITRYASWAAGRFTISKTSTTVDLKITSPTTEDTATYFCARYGYSGDVNRLDLWGQGTLVTVSSGQPKAPSVFPLAPCCGDTPSSTVTLGCLVKGYLPEPVTVTWNSGTLTNGVRTFPSVRQSSGLYSLSSVVSVTSSSQPVTCNVAHPATNTKVDKTVAPSTCSKPTCPPPELLGGPSVFIFPPKPKDTLMISRTPEVTCVVVDVSQDDPEVQFTWYINNEQVRTARPPLREQQFNSTIRVVSTLPIAHQDWLRGKEFKCKVHNKALPAPIEKTISKARGQPLEPKVYTMGPPREELSSRSVSLTCMINGFYPSDISVEWEKNGKAEDNYKTTPAVLDSDGSYFLYSKLSVPTSEWQRGDVFTCSVMHEALHNHYTQKSISRSPGK
light: MDTRAPTQLLGLLLLWLPGATFAQVLTQTASPVSAAVGGTVTINCQASQSVYDNNNLAWYQQKPGQPPKQLIYGASTLASGVSSRFKGSGSGTQFTLTISGVQCDDAATYYCLGEFSCSSADCFAFGGGTEVVVKGDPVAPTVLIFPPSADLVATGTVTIVCVANKYFPDVTVTWEVDGTTQTTGIENSKTPQNSADCTYNLSSTLTLTSTQYNSHKEYTCKVTQGTTSVVQSFNRGDC
modifications: 1D-28-4 full length heavy chain amino acid; 1D-28-4 full length light chain amino acid
For B1, the “p38 MAPK phosphorylation” value (beginning at day 1 post treatment) was “sustained phosphorylation”. Moreover, where the note is “up to 4 days”, the “STAT3 phosphorylation (p-Y705-STAT3) after antibody” value was “long-lasting and sustained decrease; also recorded: inhibits STAT3 phosphorylation”.
